Read-outs that look alike come from different tables or passages of the source.
T1: human IFNAR1, full length (IFNAR1-aa1-557) (human) (UniProt P17181)
T1 sequence (looked up): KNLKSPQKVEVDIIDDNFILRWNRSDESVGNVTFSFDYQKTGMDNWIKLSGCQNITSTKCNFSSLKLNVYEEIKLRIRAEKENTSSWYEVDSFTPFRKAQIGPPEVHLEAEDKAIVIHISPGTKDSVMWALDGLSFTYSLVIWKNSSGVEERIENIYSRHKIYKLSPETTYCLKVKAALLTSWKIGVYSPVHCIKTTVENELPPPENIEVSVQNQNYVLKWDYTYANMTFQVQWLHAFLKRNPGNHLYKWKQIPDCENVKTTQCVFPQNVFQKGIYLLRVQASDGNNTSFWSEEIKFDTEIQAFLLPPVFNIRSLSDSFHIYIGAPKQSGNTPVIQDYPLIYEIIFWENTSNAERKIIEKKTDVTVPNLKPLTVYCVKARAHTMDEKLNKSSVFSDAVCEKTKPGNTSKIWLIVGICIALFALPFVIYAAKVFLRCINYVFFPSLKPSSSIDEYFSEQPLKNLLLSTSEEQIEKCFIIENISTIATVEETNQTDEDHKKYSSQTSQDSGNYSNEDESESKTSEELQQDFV

T2: Human IFNAR1 SD1-SD4 (human, UniProt P17181 28-436, limits assumed)
T2 construct: domain: SD1-SD4; Antigen injected in the Biacore assay
T2 sequence (looked up): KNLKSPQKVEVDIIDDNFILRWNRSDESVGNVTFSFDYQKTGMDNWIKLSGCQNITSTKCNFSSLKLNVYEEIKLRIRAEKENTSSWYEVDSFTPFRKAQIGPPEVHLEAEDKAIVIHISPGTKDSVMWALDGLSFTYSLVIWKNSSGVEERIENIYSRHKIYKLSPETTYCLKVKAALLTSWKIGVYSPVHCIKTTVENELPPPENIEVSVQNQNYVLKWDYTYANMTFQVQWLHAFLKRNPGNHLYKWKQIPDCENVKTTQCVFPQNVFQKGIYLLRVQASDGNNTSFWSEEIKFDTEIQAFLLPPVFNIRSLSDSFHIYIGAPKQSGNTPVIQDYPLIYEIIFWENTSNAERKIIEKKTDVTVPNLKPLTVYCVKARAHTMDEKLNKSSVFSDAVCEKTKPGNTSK

T3: human IFNAR1 ECD (human, UniProt P17181 28-436)
T3 construct: extracellular domain; Coated on ELISA plates at 5 ug/ml
T3 sequence (looked up): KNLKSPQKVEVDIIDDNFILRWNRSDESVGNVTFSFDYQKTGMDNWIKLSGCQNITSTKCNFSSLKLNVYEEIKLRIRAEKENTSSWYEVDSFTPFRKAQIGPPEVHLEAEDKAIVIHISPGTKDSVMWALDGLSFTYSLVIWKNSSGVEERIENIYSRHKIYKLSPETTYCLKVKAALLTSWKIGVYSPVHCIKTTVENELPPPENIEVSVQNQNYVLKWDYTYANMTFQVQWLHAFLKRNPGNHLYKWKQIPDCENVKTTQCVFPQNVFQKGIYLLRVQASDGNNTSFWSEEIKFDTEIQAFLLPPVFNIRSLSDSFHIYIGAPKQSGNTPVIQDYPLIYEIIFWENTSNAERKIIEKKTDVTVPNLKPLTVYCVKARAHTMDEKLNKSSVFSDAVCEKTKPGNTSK

T4: human IFNAR1, full length (IFNAR1-aa1-557) (human, UniProt P17181 28-557)
T4 construct: whole, on cells; Overexpressed on HEK293T cells from pIRES2-EGFP-IFNAR1; also used here for the human IFNAR1 of the IFN-I reporter cells and the cells of the virus assays; also called IFNAR1-WT; wild type IFNAR1
T4 sequence (looked up): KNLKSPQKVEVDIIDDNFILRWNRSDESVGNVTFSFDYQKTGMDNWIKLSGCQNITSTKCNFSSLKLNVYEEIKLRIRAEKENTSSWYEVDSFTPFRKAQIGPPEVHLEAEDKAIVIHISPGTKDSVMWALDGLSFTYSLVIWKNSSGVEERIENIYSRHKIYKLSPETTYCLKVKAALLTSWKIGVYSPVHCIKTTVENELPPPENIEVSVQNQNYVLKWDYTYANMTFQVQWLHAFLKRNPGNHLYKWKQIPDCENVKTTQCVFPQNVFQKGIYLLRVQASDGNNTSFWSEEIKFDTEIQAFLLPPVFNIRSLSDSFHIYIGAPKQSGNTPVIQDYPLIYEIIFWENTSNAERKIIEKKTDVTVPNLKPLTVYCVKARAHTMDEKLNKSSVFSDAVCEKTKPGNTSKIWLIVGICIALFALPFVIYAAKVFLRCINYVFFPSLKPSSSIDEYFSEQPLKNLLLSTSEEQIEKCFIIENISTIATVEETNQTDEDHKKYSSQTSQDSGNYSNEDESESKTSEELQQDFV


Assays:
[1] = biological target: T1, human IFNAR1, full length (IFNAR1-aa1-557) (human); experiment: cell-based or functional assay
Human IFNAR1 SD1-SD4 = biological target: T2, Human IFNAR1 SD1-SD4; experiment: SPR (Biacore 8K), antibody captured on anti-human IgG Fc, antigen injected
Method: Preparation of a CM5 chip surface: Using HBS-EP+ (10 mM HEPES, 150 mM NaCl, 3 mM EDTA, 0.05% surfactant P20) as running buffer, both channel 1&2 of a CM5 sensor chip (GE Healthcare, BR-1000-30) were activated with a fresh mixture of 50 mM NHS and 200 mM EDC (1:1). Anti-human IgG Fc, 20 μg/ml in 10 mM NaOAc buffer (pH 5.0), was then passed over the activated surface of the two flow cells in each channel at 10 l/min (target around 10000 RU). […] Low flow rate was maintained over 2 hours for the equilibrium of the immobilized protein.
Measurement of binding kinetics: Each antibody was captured in flow cell FC2 in channel 1&2 around 250 RU respectively, using FC1 as the reference cell, followed by injection of antigen samples at varying concentrations. The signals with captured antibody subtracted from that without captured antibody were calculated with Biacore 8K evaluation software. The running buffer was HBS-EP+(10 mM HEPES, 150 mM NaCl, 3 mM EDTA, 0.05% surfactant P20).

human IFNAR1 ECD = biological target: T3, human IFNAR1 ECD; experiment: ELISA, plate coated with human IFNAR1 ECD, anti-human IgG Fc-peroxidase, OD450
Method: 96-well plates were coated with 100ul 5 ug/ml human IFNAR1 ECD in 1×PBS and incubate at 4° C. overnight. The plates were then washed with PBST (1×PBS+0.05% Tween20) for 3 times and blocked with the blocking buffer (1×PBS+0.05% Tween20+1% BSA) at RT for 2 hr. […] The plates were washed with PBST for 3 times, followed by addition of antibody (Anti-Human IgG (Fc specific)-Peroxidase antibody produced in goat, ZSGB-BIO) at 100ul/well and then incubated at RT for 1 hr. The plates were washed with PBST 5 times and then 100ul/well TMB was added and after 15 minutes, the plates were quenched with 50ul/well 2N H₂SO₄. The plates were read with Molecular device spectra max at 450 nm.

[2] = biological target: T4, human IFNAR1, full length …; experiment: flow cytometry on cells expressing human IFNAR1, MFI of PE
[3] = biological target: T4, human IFNAR1, full length …; experiment: as above; remark: listed apart in the source

Row | Molecule | percentage of GFP positive cells in IFN-I reporter cells, 50 pg/ml IFNβ against Mock control [1] | percentage of GFP positive cells in IFN-I reporter cells, 50 pg/ml IFNω against Mock control [1] | Kd (Human IFNAR1 SD1-SD4) | koff (Human IFNAR1 SD1-SD4) | kon (Human IFNAR1 SD1-SD4) | EC50 (human IFNAR1 ECD) | Top (human IFNAR1 ECD) | EC50 (read off the curve) [2] | EC50 (read off the curve) [3]
1 | Human IFNβ (from UniProt P01574 22-187) (ligand) | > 5 fold |  |  |  |  |  |  |  | 
2 | Hu4-14 (antibody, V domains shown, Humanized 7G4 variant) VH: QVQLVQSGAEVKKPGASVKVSCKASGYTFTSYWMNWVRQAPGQGLEWMGKIDPSDSETHFNQKFRDRVTLTVDKSTSTVYMELSSLRSEDTAVYYCARGGRISFDYDAALDYWGQGTLVTVSS VL: DIQMTQSPSSLSASVGDRVTITCKSSEVIYNRLAWYQQKPGNAPKLLISGATTLESGVPSRFSGSGSGKDYTLTISSLQPEDFATYYCQQYWNKPFTFGQGTKLEIK |  |  | 0.461 nM | 0.000214 s⁻¹ | 465000 M⁻¹ s⁻¹ | 2.27 ng/mL | 3.1 OD450 |  | 
3 | Hu4-13 (antibody, V domains shown, Humanized 7G4 variant) VH: QVQLVQSGAEVKKPGASVKVSCKASGYTFTSYWMNWVRQAPGQGLEWMGKIDPSDSETHFNQKFRDRVTMTRDTSTSTVYMELSSLRSEDTAVYYCARGGRISFDYDAALDYWGQGTLVTVSS VL: DIQMTQSPSSLSASVGDRVTITCKSSEVIYNRLAWYQQKPGNAPKLLISGATTLESGVPSRFSGSGSGKDYTLTISSLQPEDFATYYCQQYWNKPFTFGQGTKLEIK |  |  | 0.671 nM | 0.000301 s⁻¹ | 449000 M⁻¹ s⁻¹ | 3.27 ng/mL | 3.4 OD450 | ~40 ng/mL | 
4 | Hu4-16 (antibody, V domains shown, Humanized 7G4 variant) VH: QVQLVQSGAEVKKPGASVKVSCKASGYTFTSYWMNWVRQRPGQGLEWIGKIDPSDSETHFNQKFRDRVTLTVDKSTSTVYMELSSLRSEDTAVYYCARGGRISFDYDAALDYWGQGTLVTVSS VL: DIQMTQSPSSLSASVGDRVTITCKSSEVIYNRLAWYQQKPGNAPKLLISGATTLESGVPSRFSGSGSGKDYTLTISSLQPEDFATYYCQQYWNKPFTFGQGTKLEIK |  |  | 0.466 nM | 0.00021 s⁻¹ | 451000 M⁻¹ s⁻¹ | 3.15 ng/mL | 3.31 OD450 |  | 

Second part, the molecule after the results:

Row | percentage of GFP positive cells in IFN-I reporter cells, 50 pg/ml IFNβ against Mock control [1] | percentage of GFP positive cells in IFN-I reporter cells, 50 pg/ml IFNω against Mock control [1] | Kd (Human IFNAR1 SD1-SD4) | koff (Human IFNAR1 SD1-SD4) | kon (Human IFNAR1 SD1-SD4) | EC50 (human IFNAR1 ECD) | Top (human IFNAR1 ECD) | EC50 (read off the curve) [2] | EC50 (read off the curve) [3] | Molecule
5 |  | > 5 fold |  |  |  |  |  |  |  | Human IFNω (from UniProt P05000 24-195) (ligand)
6 |  |  | 0.633 nM | 0.000281 s⁻¹ | 444000 M⁻¹ s⁻¹ | 3.21 ng/mL | 3.35 OD450 | ~40 ng/mL | ~60 ng/mL | Hu4-6 (antibody, V domains shown, Humanized 7G4 variant) VH: QVQLVQSGAEVKKPGASVKVSCKASGYTFTSYWMNWVRQAPGQGLEWMGKIDPSDSETHFNQKFRDRVTLTVDKSTSTVYMELSSLRSEDTAVYYCARGGRISFDYDAALDYWGQGTLVTVSS VL: DIQMTQSPSSLSASVGDRVTITCKSSEVIYNRLAWYQQKPGKAPKLLIYGATTLESGVPSRFSGSGSGKDYTLTISSLQPEDFATYYCQQYWNKPFTFGQGTKLEIK

Source: patent US20220144957A1 (IMMUNECENT BIOTECHNOLOGY, published 2022)
